Source: article PMC5771957

Molecular target: T1, CCDC103 (wildtype), N-terminal His10 tagged (H. sapiens), Q8IW40
T1 chain: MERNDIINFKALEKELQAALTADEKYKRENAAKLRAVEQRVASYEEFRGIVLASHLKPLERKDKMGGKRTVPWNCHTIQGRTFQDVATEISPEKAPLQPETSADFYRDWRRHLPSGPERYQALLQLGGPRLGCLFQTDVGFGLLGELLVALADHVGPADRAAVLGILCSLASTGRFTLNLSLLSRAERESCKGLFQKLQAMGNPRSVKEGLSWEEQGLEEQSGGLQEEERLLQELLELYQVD
Experiment: SEC
Details: remark: other sources report otherwise

stoichiometry N: 2
B1: CCDC103 (wildtype), N-terminal His10 tagged, Q8IW40 1-242 (natural protein)
chain: T1 chain
